Ends that are not written are not given here. Ser‑Gly linker = flexible serine-glycine linker, six amino acids long

The labels stand for the following.
B1: B-cell lymphoma extra-large protein (Bcl-xL), first 209 amino acids with N-terminal avitag (other)
chain: AGGLNDIFEAQKIEWHEGGMSQSNRELVVDFLSYKLSQKGYSWSQFSDVEENRTEAPEGTESEMETPSAINGNPSWHLADSPAVNGATGHSSSLDAREVIPMAAVKQALREAGDEFELRYRRAFSDLTSQLHITPGTAYQSFEQVVNELFRDGVNWGRIVAFFSFGGALCVESVDKEMQVLVSRIAAWMATYLNDHLEPWIQENGGWDTFVELYGNNAAAESRKGQER
modifications: biotin on the avitag (BirA biotin ligase); a non-biotinylated form was used as the excess competitor in solution in the off-rate assays
notes: range 1-209; Expressed in E. coli BL21(DE3); Used in solution (forward assays) or immobilized through biotin on streptavidin plates or beads (reverse assay, off-rate and HTSK experiments); not shown: His tag implied (pET24a NdeI/XhoI, Ni-NTA purification, anti-HIS probe)

The target of test [1] is T1, Bim peptide (synthetic 26-residue fragment of Bim, biotin-labeled) (C-terminal amide; biotin on the side chain of the C-terminal Lys). Kind of test: equilibrium ELISA and AMMP, monovalent model, Kd and [L]0 fit simultaneously. For orientation: In an ELISA, binding on a coated surface is turned into a signal by an enzyme label.
T1 sequence (peptide, as listed by the source): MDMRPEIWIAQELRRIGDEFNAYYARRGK
Test [2] deals with T1, Bim peptide (synthetic 26-residue …). In words: equilibrium ELISA, monovalent model. As to the method:
After the capture ligand incubation, 100 μL of sample or standards were added in each well, and incubated for 1 hour at room temperature. Plates were washed, incubated with HRP-conjugated probe antibody (such as anti-HIS tag antibody) in sample buffer for 1 hour, washed, and incubated with TMB substrate (Thermo Scientific). Reactions were stopped after approximately 10 minutes with 2 M sulfuric acid, and the absorbance at 450 nm was measured via a plate reader (Molecular Devices). The ligand of interest, capture ligand, target protein, and probe ligand used in example ELISA assays performed are highlighted in the table below.
Enzymatic Kd Calculation Assay. The Kd values of ligands of interest were determined using a protocol modified from Friguet et al., Journal of immunological methods, 77, 305-319 (1985). The samples were prepared and analyzed by ELISA assay in a similar process as described above. The OD450 for the standards and their concentration values were fit to a four parameter logistic curve (standard curve). The concentration of the free Bcl-xL in solution (responsible for the signal) for each sample was calculated using the standard curve, and converted into percent of Bcl-xL bound by ligand in solution. For each ligand, the values for all the tested concentration of Bcl-xL and peptide in solution were fit simultaneously to the monovalent equilibrium model below to obtain the dissociation constant Kd (in which [C]EQ, [T]₀, [L]₀ represent the concentration of the target-ligand complex at equilibrium, the initial concentration of the target protein, and the initial concentration of the ligand, respectively).
The equilibrium assay is a modified version of the method described by Friguet et al., supra. The samples were prepared and analyzed by ELISA assay in a similar process as described above.

The target is the same in test [3]. Kind of test: equilibrium AMMP, monovalent model. As to the method: AMMP Assays. For the AMMP assays, 90 μL of each sample or standards was incubated with 30 μL of magnetic beads (12 μg of beads/mL) and fluorescein-labeled antibody (8 nM) in sample buffer for 1 hour. The experiment's run buffer was 1×PBS+1% (v/v) Tween-20+1% (v/v) heat-treated FBS (Invitrogen; FBS was heat treated for 15 minutes at 65° C. and filtered). BioScale Universal Detection Cartridges were used in performing all of the assays. The device was used per the manufacturer's instructions. The ligand of interest, capture ligand, target protein, and probe ligand used in example AMMP assays performed are highlighted in the table below.
A competing ligand of unknown Kd was incubated with the target and allowed to equilibrate. The target protein bound to the competing ligand is not anchored to the magnetic beads. Subsequent wash steps thereby […]. The Kd of interaction between the target protein and the competing ligand can then be determined by quantifying the amount of free target in solution.

For test [4], the target named is B1. Kind of test: radiolabeled peptide off-rate, reference D1.
The target in test [5] is B1. In words: radiolabeled HA-tagged peptide off-rate from immobilized Bcl-xL. As to the method: The radiolabeled peptides were allowed to bind to 30 pmol immobilized Bcl-xL for 1 hour in sample buffer (1×PBS, 1% (w/v) BSA, 0.1% (v/v) Tween 20, 10 μM biotin). The beads were magnetically separated, and washed 5× with sample buffer. The beads were resuspended in 1 mL of sample buffer containing 3 μM non-biotinylated Bcl-xL (˜100× molar excess relative to immobilized biotinylated Bcl-xL). At various time points, 100 μL of slurry was removed and the beads were magnetically separated and washed. The percent remaining at each time point was determined by dividing the counts per minute (cpm) on beads by total cpm (beads+washes). The peptide off-rate was determined by an exponential fit of the Percent counts on beads vs. Time (s).
The peptide ligands were made using a C-terminal HA tag, and affinity purified.

As a reminder, the Kd is the concentration at which binding is half-saturated. Read a high Kd as a looser complex. B1: the dissociation constant Kd in test [1] came to 0.15 nM; in test [2], 0.17 nM; in test [3] it was 0.077 nM.

B2: D79, radiolabeled in vitro translated peptide with C-terminal serine-glycine linker and HA tag (peptide)
peptide: MIDTNVILNYKKAADHFSITM-{Ser‑Gly linker-HA tag}
modifications: also: 35S-labeled methionine
notes: Frequency rank 79 in the doped selection pool; also called peptide D79; not shown: flexible serine-glycine linker, six amino acids long; HA tag
What is called koff is the first-order rate constant of dissociation. High values mean fast dissociation, low ones slow dissociation. Take B2: the “fold slower off-rate than D1” value in test [4] was over 3 fold. The off-rate constant (koff) in test [5] amounted to 5.9e-07 s⁻¹.

These data come from US20180172683A1 (published 2018).
